Experimental data from US20230070731A1, “COMPOSITIONS FOR SMALL MOLECULE CONTROL OF PRECISE BASE EDITING OF TARGET NUCLEIC ACIDS AND METHODS OF USE THEREOF” (THE TRUSTEES OF THE UNIVERSITY OF PENNSYLVANIA, priority 2020, published 2023).

Assays:
[1] = tested on: fluorescein (FAM)-labeled oligonucleotide substrate containing a single cytosine; experiment: In vitro DNA deaminase oligonucleotide assay; type: biochemical; settings: result in words
Method: For in vitro assays, purified intact, optGFP-inserted, or split DNA deaminases were expressed in BL21(DE3) cells that co-express the Trigger Factor (TF) chaperone, as previously described^33. Briefly, 600 mL cultures were grown to an OD600 of 0.6 at 37° C. Cultures were shifted to 16° C. for 16 hours after induction with 1 mM IPTG. For AID variants, the pelleted cells were resuspended in 50 mM Tris-Cl (pH 7.5) 150 mM NaCl, 10% glycerol (wash buffer) and lysed through sonication. The soluble fraction was filtered after high-speed centrifugation and incubated with 3 mL of Amylose Resin (NEB) for 1 hr at 4° C. The resin was washed extensively prior to elution with wash buffer plus 10 mM maltose. Total protein was quantified by comparison to a BSA standard curve. For A3A variants, the pelleted cells were resuspended in 50 mM Tris-Cl (pH 7.5) 150 mM NaCl, 10% glycerol, 25 mM imidazole (wash buffer) and lysed through sonication. The soluble fraction was filtered after high-speed centrifugation and incubated with 3 mL of HisPur cobalt resin (Thermo) for 1 hr at 4° C. […]
For the in vitro assay, a fluorescein (FAM)-labeled oligonucleotide substrate was used containing a single cytosine, along with a product control oligonucleotide containing uracil at the same location. […] Product formation was quantified using ImageJ by taking the ratio of substrate to product under each condition. […]

[2] = tested on: BL21(DE3) E. coli; experiment: Bacterial DNA deaminase rifampicin mutagenesis assay (acquired rifampin resistance); type: cell-based; settings: expression in E. coli
Method: In initial studies, a foreign protein/domain was inserted into an enhanced hyperactive version of AID described in U.S. patent application Ser. No. 16/025,261 (See for example, SEQ ID NO: 20 of the '261 patent application) which is incorporated herein by reference as though set forth in full. This mutant version of the human DNA deaminase AID, involved in antibody maturation was assessed and the loop regions which appeared to be tolerant to insertion of control elements (e.g., Green Fluorescent Protein GFP fragments) were identified as described hereinbelow. Several candidate locations for insertion were identified. We used an E. coli-based rifampin mutagenesis assay to evaluate activity (See Kohli et al., J Biol Chem. (2009) 284:pages 22898-904). In this assay we measure the activity level of a mutator by measuring how many E. coli can be turned resistant to the antibiotic rifampin when the enzyme is turned on.
The mutation frequency of various DNA deaminases, including insertion constructs, were determined using a modified version of previously reported rifampin mutagenesis assay (Kohli, JBC 2009). […] The mutation frequencies were then calculated by the ratio of rifampicin resistant colonies to total population. […]

| Substance | in vitro deaminase activity [1] | Rif^R increase relative to catalytically inactive mutant AID(E58A) [2] |
| --- | --- | --- |
| A3A: human A3 enzyme APOBEC3A DNA deaminase | tolerated optGFP insertion | – |
| AID(WT): unmutated AID (activation induced deaminase) | – | 12 fold |
